In PMC11480323:

Target: Cas7 of the type I-F Cas8-HNH system from Selenomonas sp. isolate RGIG9219 (Selenomonas sp. isolate RGIG9219)
Experiment: cryo-EM structure; Cas8-HNH Cascade-crRNA ribonucleoprotein complex in the target-free state, 3.6 Å; subunits co-expressed in E. coli with crRNA and purified as one complex

Cas7 of the type I-F Cas8-HNH system from Selenomonas sp. isolate RGIG9219 (natural protein)
stoichiometry N: 6
